Results as given in paper PMC4761994, “Unraveling and engineering the production of 23,24-bisnorcholenic steroids in sterol metabolism” (Scientific Reports, 2016).

Key:
Hsd4AMN = target: T1, Hsd4AMN (Mycolicibacterium neoaurum, UniProt A0A0H3W613); experiment: NADH oxidation at […] nm, Michaelis-Menten fit; type: biochemical; conditions: NADH 125 μM; 125 mM Tris-HCl pH 8.0; 30 °C
T1 construct: gene hsd4A

[1] = test system: CC(O)CC(=O)SCCNC(=O)CCNC(=O)[C@H](O)C(C)(C)COP(=O)(O)OP(=O)(O)OC[C@H]1O[C@@H](n2cnc3c(N)ncnc32)[C@H](O)[C@@H]1OP(=O)(O)O; experiment: purified protein; type: biochemical, Mycolicibacterium neoaurum; conditions: NAD+ 125 μM, 125 mM glycine-NaOH pH 9.0, 30 °C, DL mixture of substrate, pH 9.0
[2] = test system: C[C@]12CC[C@H]3[C@@H](CCC4=CC(=O)C=C[C@@]43C)[C@@H]1CC[C@@H]2O; experiment: purified protein; type: biochemical, Mycolicibacterium neoaurum; conditions: NAD+ 100 μM, 100 mM Tris-HCl pH 7.8, 30 °C, pH 7.8
[3] = test system: C[C@]12CC[C@H]3[C@@H](CCC4=CC(=O)CC[C@@]43C)[C@@H]1CC[C@@H]2O; experiment: purified protein; type: biochemical, Mycolicibacterium neoaurum; conditions: NAD+ 100 μM, 100 mM Tris-HCl pH 7.8, 30 °C, pH 7.8

Compound | Km (Hsd4AMN) [µM] | Km [1] [µM] | Vmax [1] [µmol/min/mg] | Km [2] [µM] | Vmax [2] [µmol/min/mg] | Km [3] [µM] | Vmax [3] [µmol/min/mg]
CC(=O)CC(=O)SCCNC(=O)CCNC(=O)[C@H](O)C(C)(C)COP(=O)(O)OP(=O)(O)OC[C@H]1O[C@@H](n2cnc3c(N)ncnc32)[C@H](O)[C@@H]1OP(=O)(O)O [acetoacetyl-CoA] | 101 ± 27 |  |  |  |  |  | 
Hsd4AMN (Mycolicibacterium neoaurum ATCC 25795) |  | 124 ± 39 | 0.113 | 19 ± 4 | 0.217 | 23 ± 7 | 0.169
